# Test results from patent US20040009568A1, “Catalytic domains of the human hepatocyte growth factor receptor tyrosine kinase, and materials and methods for identification of inhibitors thereof” (priority 2001, published 2004).
# Target: T1, phosphorylated HGFR (pHGFR) (Homo sapiens, UniProt P08581)
# T1 construct: The cDNA corresponding to residues 1051-1349 of the HGFR kinase catalytic domain (HGFRkd) was cloned into a pFastBac plasmid; added N-terminal methionine (start codon of the NcoI site) (N); made in house; host or cells: Sf9 insect cells, recombinant baculovirus; then autophosphorylated in vitro with MgATP
# T1 sequence (P08581 1051-1349): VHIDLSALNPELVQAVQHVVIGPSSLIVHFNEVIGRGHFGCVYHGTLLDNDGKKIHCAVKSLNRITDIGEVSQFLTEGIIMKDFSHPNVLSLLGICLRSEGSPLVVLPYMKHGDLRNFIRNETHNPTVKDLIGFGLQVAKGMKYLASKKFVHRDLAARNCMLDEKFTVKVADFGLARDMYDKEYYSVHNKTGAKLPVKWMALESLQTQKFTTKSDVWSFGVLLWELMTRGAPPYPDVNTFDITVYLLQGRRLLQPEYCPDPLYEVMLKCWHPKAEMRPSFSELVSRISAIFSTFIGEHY
# Experiment: Coupled enzymatic (PK/LDH) kinase assay, phospho-HGFR
# Assay type: biochemical
# Conditions: coupled, enzymatic format; phosphorylation state of HGFR not stated; read-out: Km, Dephosphorylated α-casein
# Experimental: A coupled enzymatic assay format was used to measure both HGFR and phospho-HGFR(PHGFR) activities. The kinase-catalyzed production of ADP from ATP that accompanies phosphate transfer to the random copolymer poly(Glu4Tyr) or peptide substrate was coupled to the oxidation of NADH through the activities of pyruvate kinase (PK) and lactate dehydrogenase (LDH). NADH conversion to NAD^+ was monitored by the decrease in absorbance at 340 nm (ε=6.22 cm^−1 mM^−1) using a Beckman DU650 spectrophotometer. A typical reaction solution contained 1 mM phosphoenolpyruvate, 0.24 mM NADH, 40 mM MgCl2, 5 mM DTT, poly(Glu4Tyr), ATP, 15 units/mL PK, 15 units/mL LDH in 100 mM HEPES, pH 7.5. […]
# The kinetic consequences of the autophosphorylation were investigated. HGFR and pHGFR activities were evaluated in two distinct and complementing assay formats. […] NADH conversion to NAD^+ was monitored spectrophotometrically by the decrease in absorbance at 340 nm (ε=6.22 cm^−1 mM^−1). […]
# Inhibition of HGFR and pHGFR were monitored in two distinct assay formats to insure valid results. The coupled, enzymatic format (CE) was a continuous assay that measured ADP production through the sequential action of two standard coupling enzymes (pyruvate kinase and lactate dehydrogenase). The radioactive assay format was a discontinuous assay that measured phospho-protein production directly. […]
molecule,measurement,value
Dephosphorylated α-casein: phosphoacceptor protein substrate for HGFR (protein) RPKHPIKHQGLPQEVLNENLLRFFVAPFPEVFGKEKVNELSKDIGSESTEDQAMEDIKQMEAESISSSEEIVPNSVEQKHIQKEDVPSERYLGYLEQLLRLKKYKVPQLEIVPNSAEERLHSMKEGIHAQQKEPMIGVNQELAYFYPELFRQFYQLDAYPSGAWYYVPLGTQYTDAPSFSDIPNPIGSENSEKTTMPLW,Km,28.5 ± 3.5 µM
